{
  "source": "patent US20260240994A1",
  "about": "(MAYO FOUNDATION FOR MEDICAL EDUCATION AND RESEARCH, published 2026)",
  "key": {"[1]": {"molecular_target": "T1, Recombinant Human E-cadherin Fc chimera (BioLegend) (human, UniProt P12830 155-707)", "T1 construct": "also called human Ecad Fc chimeric protein; recombinant human Ecad Fc chimera; Fc part of the bought chimera not given", "T1 sequence (looked up)": "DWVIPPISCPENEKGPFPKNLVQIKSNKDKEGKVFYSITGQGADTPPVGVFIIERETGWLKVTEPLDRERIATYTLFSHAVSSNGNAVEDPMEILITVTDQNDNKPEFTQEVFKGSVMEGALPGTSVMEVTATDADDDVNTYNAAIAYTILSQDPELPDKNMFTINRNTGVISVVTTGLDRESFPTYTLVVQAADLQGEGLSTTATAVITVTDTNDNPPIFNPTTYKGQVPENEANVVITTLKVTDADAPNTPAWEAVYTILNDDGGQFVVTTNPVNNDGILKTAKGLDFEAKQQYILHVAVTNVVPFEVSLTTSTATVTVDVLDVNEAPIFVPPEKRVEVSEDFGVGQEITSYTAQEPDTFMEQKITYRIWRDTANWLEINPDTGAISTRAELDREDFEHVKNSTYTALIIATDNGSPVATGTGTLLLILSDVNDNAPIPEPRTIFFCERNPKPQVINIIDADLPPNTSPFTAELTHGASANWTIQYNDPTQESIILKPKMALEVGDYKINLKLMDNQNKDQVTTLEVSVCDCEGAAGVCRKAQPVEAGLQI", "experiment": "phage display panning", "description": "(§1) hmcECAD.6 scFv sequence was generated and optimized for binding to Ecad protein through phage display library selection. A naive human scFv library of approximately 2×10⁹ diversity was used to screen against recombinant Ecad protein (Biomolecular Discovery, Rochester, NY). The hmcECAD.6 scFv clone was identified after two rounds of screening against mouse Ecad followed by another round of panning on human Ecad Fc chimeric protein (both from BioLegend, San Diego, CA). […] Final hmcECAD.6 sequence (SEQ ID NO: 90) was codon optimized for cloning of heavy and light chain into EcCAR plasmid."}, "[2]": {"molecular_target": "T2, mouse Ecad (recombinant protein, BioLegend) (mouse, UniProt P09803 157-709, limits assumed)", "T2 construct": "Bought recombinant protein; Also used here for the general statements of mouse cross-reactivity; also called mouse E-cadherin", "T2 sequence (looked up)": "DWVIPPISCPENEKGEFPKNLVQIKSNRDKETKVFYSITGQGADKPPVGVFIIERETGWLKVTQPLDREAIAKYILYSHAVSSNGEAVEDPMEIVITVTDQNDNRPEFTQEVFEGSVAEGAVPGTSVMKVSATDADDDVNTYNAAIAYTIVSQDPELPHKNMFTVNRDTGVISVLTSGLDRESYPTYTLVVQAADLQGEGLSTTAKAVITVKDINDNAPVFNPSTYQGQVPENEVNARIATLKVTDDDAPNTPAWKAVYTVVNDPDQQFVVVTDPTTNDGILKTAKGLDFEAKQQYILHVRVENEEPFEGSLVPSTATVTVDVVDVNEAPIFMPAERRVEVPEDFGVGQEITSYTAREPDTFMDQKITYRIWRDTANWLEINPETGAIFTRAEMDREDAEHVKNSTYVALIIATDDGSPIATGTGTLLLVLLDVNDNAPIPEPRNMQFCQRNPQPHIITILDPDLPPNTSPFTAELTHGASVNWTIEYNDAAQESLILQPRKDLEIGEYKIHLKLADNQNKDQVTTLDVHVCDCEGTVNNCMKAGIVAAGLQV", "experiment": "phage ELISA; relative affinity estimated against the FLAG antibody signal", "description": "as §1"}},
  "data": [
    {"binder": "hmcECAD.6 scFv clone (scFv, Human scFv from a naive phage display library; also called anti-hmcECAD.6; anti-Ecad scFv) scFv: LPVLTQPPSASGTPGQRVTISCSGSSSNIGSNYVYWYQQLPGTAPKLLIYRNNQRPSGVPDRFSGSKSGTSASLAISGLQSEDEADYYCASWDTSLRAWVFGGGTKLTVLGEGKSSGSGSESKASEVQLVQSGGGLVQPGGSLRLSCAASGFTFSSYSMNWVRQAPGKGLEWVSYISSSSSTIYYVDSVKGRFTISRDNAKNSLYLQMDSLRAEDTAVYYCARGGRVLVGALFDYWGQGTLVTVSS", "values": [
      {"measurement": "binding result", "setting": "[1]", "result": "binds"},
      {"measurement": "Kd", "setting": "[2]", "result": "~5", "unit": "nM"}
    ]}
  ]
}
